No end group written: not given here. *: point of attachment. sulfate = O=S(=O)(O)*
B8: Y1 scFv (scFv)
scFv: EVQLVESGGGVVRPGGSLRLSCAASGFTFDDYGMSWVRQAPGKGLEWVSGINWNGGSTGYADSVKGRFTISRDNAKNSLYLQMNSLRAEDTAVYYCARMRAPVIWGQGTLVTVSRGGGGSGGGGSGGGGSSELTQDPAVSVALGQTVRITCQGDSLRSYYASWYQQKPGQAPVLVIYGKNNRPSGIPDRFSGSSSGNTASLTITGAQAEDEADYYCNSRDSSGNHVVFGGGTKLTVLGAAAEQKLISEEDLNGAA
notes: Fully human scFv from the Nissim I phage library; Used biotin-labelled in most Western blots; also called scFv Y1; scFv-Y1

What was measured:
Y1 scFv [1] = target: B8; assay: competitive FACS: Y1-scFv 1 µg preincubated with peptide at 2.5 µM, residual binding to washed platelets
Description: (§1) In addition, FACS analysis using washed platelets was carried out. […] A polystyrene microtiter maxisorb plate was coated with (a) purified glycocalicin or (b) washed platelets. […] The plate was then incubated with rabbit anti-scFv followed by addition of anti rabbit-HRP (horse radish peroxidase) and HRP substrate. […] The optical density was measured at A₄₀₅. Each sample was assayed in duplicate, and the average was calculated.

Y1 scFv [2] = target: B8; assay: competition ELISA: Y1 0.25 µg/well preincubated with peptide at 2.5 µM, residual binding to glycocalicin
Y1 scFv [3] = target: B8; assay: competition ELISA: Y1 0.25 µg/well preincubated with peptide at 0.5 µM, residual binding to glycocalicin
Y1 scFv [4] = target: B8; assay: competition ELISA: Y1 0.25 µg/well preincubated with peptide at 25 µM, residual binding to glycocalicin
Y1 scFv [5] = target: B8; assay: competitive FACS: Y1-scFv 1 µg preincubated with peptide at 200 µM, residual binding to washed platelets
Description: as §1

Y1 scFv [6] = target: B8; assay: competition ELISA: peptide (1, 10, 100 µM) preincubated with scFv Y1, binding to immobilized glycocalicin
PSGL-1 on KG-1 cells [7] = target: T1, PSGL-1 on KG-1 cells (human, UniProt Q14242 42-412, sulfated tyrosine residues at the N-terminal site); assay: radio receptor binding assay on KG-1 cells, tracer 125I-Y1-IgG 2 ng/tube
T1 construct: whole, on cells; results on KG-1 cells, lysates and membrane fractions are written against this molecule; also called CD162; P-Selectin Glycoprotein Ligand-1
T1 sequence (looked up): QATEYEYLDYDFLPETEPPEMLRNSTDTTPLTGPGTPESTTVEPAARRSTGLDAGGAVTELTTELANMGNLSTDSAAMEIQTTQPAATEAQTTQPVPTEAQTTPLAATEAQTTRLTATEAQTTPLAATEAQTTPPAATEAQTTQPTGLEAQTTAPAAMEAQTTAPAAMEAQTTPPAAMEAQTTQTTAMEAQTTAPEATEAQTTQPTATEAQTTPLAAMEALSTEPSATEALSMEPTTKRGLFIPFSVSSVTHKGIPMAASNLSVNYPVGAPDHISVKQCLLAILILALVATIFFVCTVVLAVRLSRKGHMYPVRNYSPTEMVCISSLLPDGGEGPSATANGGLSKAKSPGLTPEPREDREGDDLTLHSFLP
Description: (§2) The assay tubes contained 5×10⁶ KG-1 cells per 0.2 ml and a labeled tracer with varying amounts of unlabeled competitor, in PBS+0.1% BSA, pH 7.4. After one hour incubation with agitation at 4° C., the cells were thoroughly washed with cold buffer and taken for radioactivity counting.

PSGL-1 on KG-1 cells [8] = target: T1, PSGL-1 on KG-1 cells; assay: radio receptor assay on KG-1 cells, dimer as competitor
PSGL-1 on KG-1 cells [9] = target: T1, PSGL-1 on KG-1 cells; assay: radioreceptor assay, ELISA or FACS; KG-1 cells
PSGL-1 on KG-1 cells [10] = target: T1, PSGL-1 on KG-1 cells; assay: FACS on KG-1 cells, FITC-labeled
PSGL-1 on KG-1 cells [11] = target: T1, PSGL-1 on KG-1 cells; assay: second radio receptor binding assay on KG-1 cells, labeled tracer 100 ng/tube
Description: as §2

Lumican = target: T2, Lumican (human, UniProt P51884 19-338, contains sulfated tyrosine residues); assay: Western blot of human plasma proteins
T2 construct: The ~80 kDa band was identified as CC4 and lumican together; also called human lumican; H P-ligand 2
T2 sequence (looked up): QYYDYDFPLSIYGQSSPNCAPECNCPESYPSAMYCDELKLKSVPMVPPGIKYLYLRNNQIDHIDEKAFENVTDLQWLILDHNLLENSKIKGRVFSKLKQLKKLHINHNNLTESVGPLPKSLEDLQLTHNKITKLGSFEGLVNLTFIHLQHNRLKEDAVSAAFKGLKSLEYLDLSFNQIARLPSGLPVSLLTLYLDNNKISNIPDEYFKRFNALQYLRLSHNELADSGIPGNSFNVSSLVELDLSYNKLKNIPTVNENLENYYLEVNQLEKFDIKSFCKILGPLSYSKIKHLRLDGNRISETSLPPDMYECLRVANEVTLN

PSGL-1 on KG-1 cells [12] = target: T1, PSGL-1 on KG-1 cells; assay: Western blot of RP-HPLC KG-1 membrane fraction after O-Sialo glycoprotein endopeptidase, 30' at 37° C.
[13] = target: T3, GPIbα small N-terminal 42 kDa fragment (His1-Leu275) (human, UniProt P07359 17-291); assay: Western blot of cathepsin G digested glycocalicin
T3 construct: also called smaller N-terminal fragment (cathepsin G)
T3 sequence (P07359 17-291 limits assumed): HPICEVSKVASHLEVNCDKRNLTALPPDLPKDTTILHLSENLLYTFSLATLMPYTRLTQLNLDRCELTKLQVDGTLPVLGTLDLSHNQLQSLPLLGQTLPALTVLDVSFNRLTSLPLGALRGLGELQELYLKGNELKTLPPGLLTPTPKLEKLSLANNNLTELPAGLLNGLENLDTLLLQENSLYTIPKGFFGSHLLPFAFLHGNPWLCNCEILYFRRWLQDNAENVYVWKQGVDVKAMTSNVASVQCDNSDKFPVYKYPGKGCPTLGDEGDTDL
Excerpt: Glycocalicin and glycocalicin fragments generated by cathepsin G digestion were separated on SDS-polyacrylamide gels and transferred to nitrocellulose.

PSGL-1 on KG-1 cells [14] = target: T1, PSGL-1 on KG-1 cells; assay: FACS on KG-1 cells

B1: P-3-S (peptide)
peptide: GDEGDTDLY(sulfate)DY(sulfate)Y(sulfate)P
notes: also called residues 268-280 of GPIbα, sulfated
Residual Binding of Y1 (% of baseline) (Geo Mean) (Y1 scFv [1]): 82% | Residual Binding of Y1 (% of baseline) (Y1 scFv [2]): 67% | Residual Binding of Y1 (% of baseline) (Y1 scFv [3]): 80% | Residual Binding of Y1 (% of baseline) (Y1 scFv [4]): 21% | Residual Binding of Y1 (% of baseline) (Geo Mean) (Y1 scFv [5]): 26%

B2: F-YY (peptide)
peptide: VRPEHPAETEYESLYPEDDL
notes: also called Fibrinogen-γ-prime chain peptide, non-sulfated
binding result (Y1 scFv [6]): no binding (tested: 100 µM)

B3: Y1-cys-kak (cysteine dimer) (other)
scFv 1: MEVQLVESGGGVVRPGGSLRLSCAASGFTFDDYGMSWVRQAPGKGLEWVSGINWNGGSTGYADSVKGRFTISRDNAKNSLYLQMNSLRAEDTAVYYCARMRAPVIWGQGTLVTVSRGGGGSGGGGSGGGGSSELTQDPAVSVALGQTVRITCQGDSLRSYYASWYQQKPGQAPVLVIYGKNNRPSGIPDRFSGSSSGNTASLTITGAQAEDEADYYCNSRDSSGNHVVFGGGTKLTVLGGGGCKAK
scFv 2: MEVQLVESGGGVVRPGGSLRLSCAASGFTFDDYGMSWVRQAPGKGLEWVSGINWNGGSTGYADSVKGRFTISRDNAKNSLYLQMNSLRAEDTAVYYCARMRAPVIWGQGTLVTVSRGGGGSGGGGSGGGGSSELTQDPAVSVALGQTVRITCQGDSLRSYYASWYQQKPGQAPVLVIYGKNNRPSGIPDRFSGSSSGNTASLTITGAQAEDEADYYCNSRDSSGNHVVFGGGTKLTVLGGGGCKAK
modifications: Interchain disulfide between Cys 243 of chain 1 and Cys 243 of chain 2; in the FACS of paragraph 474 the dimer also carried FITC.
notes: also called Y1-cys-kak scFv dimer; S-S Y1 dimer
Kd (PSGL-1 on KG-1 cells [7]): ~40 nM | fold higher affinity than CONY1 (PSGL-1 on KG-1 cells [7]): 30 fold | fold lower affinity than the full Y1 antibody (PSGL-1 on KG-1 cells [7]): 2 fold | fold more efficient than the monomer (PSGL-1 on KG-1 cells [8]): 30 fold | fold higher binding than the Y1 scFv monomer (PSGL-1 on KG-1 cells [9]): ≥ 20 fold | fold less material than the monomer (PSGL-1 on KG-1 cells [10]): 10 fold | Kd (PSGL-1 on KG-1 cells [11]): ~50 nM | fold higher affinity than CONY1 (PSGL-1 on KG-1 cells [11]): 20 fold

B4: CONY1 (scFv)
scFv: EVQLVESGGGVVRPGGSLRLSCAASGFTFDDYGMSWVRQAPGKGLEWVSGINWNGGSTGYADSVKGRFTISRDNAKNSLYLQMNSLRAEDTAVYYCARMRAPVIWGQGTLVTVSRGGGGSGGGGSGGGGSSELTQDPAVSVALGQTVRITCQGDSLRSYYASWYQQKPGQAPVLVIYGKNNRPSGIPDRFSGSSSGNTASLTITGAQAEDEADYYCNSRDSSGNHVVFGGGTKLTVLGAAAKAK
notes: also called Y1-kak; Y1 scFv monomer
Kd (PSGL-1 on KG-1 cells [11]): ~1000 nM

B5: P-2-S (peptide)
peptide: TDLY(sulfate)DY(sulfate)Y(sulfate)PEEDTE
notes: also called residues 273-285 of GPIbα, sulfated
Residual Binding of Y1 (% of baseline) (Geo Mean) (Y1 scFv [1]): 61% | Residual Binding of Y1 (% of baseline) (Y1 scFv [2]): 52% | Residual Binding of Y1 (% of baseline) (Y1 scFv [3]): 78% | Residual Binding of Y1 (% of baseline) (Y1 scFv [4]): 15% | Residual Binding of Y1 (% of baseline) (Geo Mean) (Y1 scFv [5]): 7%

B6: F-Y*Y* (peptide)
peptide: VRPEHPAETEY(sulfate)ESLY(sulfate)PEDDL
notes: also called Fibrinogen-γ-prime chain peptide, sulfated
binding result (Y1 scFv [6]): no binding (tested: 100 µM)

REEGRQHFFLLEGRSSYS (also called negative control peptide) [EGR]
Residual Binding of Y1 (% of baseline) (Geo Mean) (Y1 scFv [1]): 96% | Residual Binding of Y1 (% of baseline) (Y1 scFv [2]): 100% | Residual Binding of Y1 (% of baseline) (Y1 scFv [3]): 121% | Residual Binding of Y1 (% of baseline) (Y1 scFv [4]): 89% | Residual Binding of Y1 (% of baseline) (Geo Mean) (Y1 scFv [5]): 119%

B7: Y1-IgG (antibody, V domains shown)
VH: EVQLVESGGGVVRPGGSLRLSCAASGFTFDDYGMSWVRQAPGKGLEWVSGINWNGGSTGYADSVKGRFTISRDNAKNSLYLQMNSLRAEDTAVYYCARMRAPVIWGQGTLVTVSR
VL: SELTQDPAVSVALGQTVRITCQGDSLRSYYASWYQQKPGQAPVLVIYGKNNRPSGIPDRFSGSSSGNTASLTITGAQAEDEADYYCNSRDSSGNHVVFGGGTKLTVL
Kd (PSGL-1 on KG-1 cells [7]): ~20 nM

B8
binding result (Lumican): binds | binding result (PSGL-1 on KG-1 cells [12]): binds

B9: Y17 scFv (scFv)
scFv: EVQLVESGGGVVRPGGSLRLSCAASGFTFDDYGMSWVRQAPGKGLEWVSGINWNGGSTGYADSVKGRFTISRDNAKNSLYLQMNSLRAEDTAVYYCARLTHPYFWGQGTLVTVSRGGGGSGGGGSGGGGSSELTQDPAVSVALGQTVRITCQGDSLRSYYASWYQQKPGQAPVLVIYGKNNRPSGIPDRFSGSSSGNTASLTITGAQAEDEADYYCNSRDSSGNHVVFGGGTKLTVLGAAAEQKLISEEDLNGAA
notes: Human scFv selected on platelets in the same way as Y1; also called biotin labeled-Y17
binding result [13]: no binding | binding result (PSGL-1 on KG-1 cells [14]): binds
